Test results as given in article PMC8949118, “The Transcription Factor SpoVG Is of Major Importance for Biofilm Formation of Staphylococcus epidermidis under In Vitro Conditions, but Dispensable for In Vivo Biofilm Formation”.

How the values were obtained:
[1] = target: T1, HAT-HA-SpoVG (Staphylococcus epidermidis 1457, UniProt Q8CML1 1-102); assay: EMSA; 2-12 uM SpoVG, 2 mM Mg2+; 20 mM HEPES pH 8.0, 10 mM KCl, 2 mM MgCl2, 0.1 mM EDTA, 0.1 mM DTT, 50 ug/mL BSA, 10% glycerol; 200 fmol probe in 20 uL; 30 min room temperature; 2.5% agarose gel in cold TAE; settings: protein: recombinant; tags: N-terminal HAT-HA-linker; label: DYE682; blunt
T1 sequence: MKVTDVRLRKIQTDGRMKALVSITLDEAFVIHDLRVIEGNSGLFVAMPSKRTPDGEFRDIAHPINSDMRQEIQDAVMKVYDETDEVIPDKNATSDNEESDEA

[2] = target: T1, HAT-HA-SpoVG; assay: competition EMSA; 10x or 20x excess over labeled icaA probe; 20 mM HEPES pH 8.0, 10 mM KCl, 2 mM MgCl2, 0.1 mM EDTA, 0.1 mM DTT, 50 ug/mL BSA, 10% glycerol; 200 fmol probe in 20 uL; 30 min room temperature; 2.5% agarose gel in cold TAE; settings: protein: recombinant; tags: N-terminal HAT-HA-linker; blunt
[3] = target: T1, HAT-HA-SpoVG; assay: EMSA; 12 uM SpoVG, 2 mM Mg2+; 20 mM HEPES pH 8.0, 10 mM KCl, 2 mM MgCl2, 0.1 mM EDTA, 0.1 mM DTT, 50 ug/mL BSA, 10% glycerol; 200 fmol probe in 20 uL; 30 min room temperature; 2.5% agarose gel in cold TAE; settings: protein: recombinant; tags: N-terminal HAT-HA-linker; label: DYE682; blunt

B1: icaA probe (dsDNA)
DNA 1: TAACAACATTCTATTGCAAATTGAAATACTTTCGATTAGCATATGCTTTACAACCTAACTAACGAAAGGTAGGTGAAAAA
DNA 2: TTTTTCACCTACCTTTCGTTAGTTAGGTTGTAAAGCATATGCTAATCGAAAGTATTTCAATTTGCAATAGAATGTTGTTA
binding result [1]: binds

B2: unlabeled icaA probe (dsDNA)
DNA 1: TAACAACATTCTATTGCAAATTGAAATACTTTCGATTAGCATATGCTTTACAACCTAACTAACGAAAGGTAGGTGAAAAA
DNA 2: TTTTTCACCTACCTTTCGTTAGTTAGGTTGTAAAGCATATGCTAATCGAAAGTATTTCAATTTGCAATAGAATGTTGTTA
binding result [2]: binds

B3: secA p control probe (dsDNA)
DNA 1: AGTATAATTTTCTAACTATAAATGATAAGATATATTGTTGTAGGCCAAACAGTTTTTTAGCTAAAGGAGCGAACGAAATG
DNA 2: CATTTCGTTCGCTCCTTTAGCTAAAAAACTGTTTGGCCTACAACAATATATCTTATCATTTATAGTTAGAAAATTATACT
binding result [3]: no binding
